assay: soluble on expression in E. coli; label from the status in PepcDB or PDB records

Sequence | soluble on expression in E. coli
MTNNITPIHEYKKYWAECFGTAPFLPTSRKEMDALGWDSCDIIIVTGDAYVDHPSFGMAIIGRLLEAQGFRVGIIAQPEWQNKNAFMQLGKPNLFFGITAGNMDSMINRYTADKKLRHDDAYTPNNEGGKRPDRATLVYSQRCREAYKEVPIVLGGIEASLRRVAHYDYWSDKVRRSVLFDAKADILLFGNAERALVEVAHRIANGEDISTMTNIRGTAVNLPAAPEGYTVIDSSRIEKPRKEAFVPKNPYEVETQCETKKDEPVAQPITIRPSRHDAATTAVRLPSFEKLRNDRILYAHASRVLHLETNPYSGRALLQSHGDRELWVNQAPIPLTTEEMDFVFGLPYARVPHPMYGKAKIPAYDMIKTS | not soluble
MGSSIASSLMDPTQYYSQFISLQKASLEKAKTPYQNQISSYQSRIDLYASLKNALSDSLKTMSSFTTYESKTKLATSSNETSFTVSSTSSSVNGSYSIEVQNLATADT | not soluble
IKNFSYGVKFVLSDAQQKILKYNNPDKSLSNPYYEGQKLGEIWGYKTIGIAQSDEEMNQHLANAKQPMGQKWAAGDIMYADLDNSGSVDQGNYKVGDSGDWQIIGNNTPRFNYGITIDAAWKGLDFRAFVQGIGKRDYWLNGPYFWGFSGGGEWASAGFKEHWDFWRPEGDPLGANTNSYFARVIRGTSKNQQRQTRYLQDASYWRLKNIQIGYTLPKVWTKKAGMESVRVYVSGDNLLTVSDITGVFDPENLGTQWTDPGKVYPLQKVIAIGLTVNF | not soluble
MSLRPTEYIDLHCHLLPGLDDGPQQLAQAVEMARQAVADGIHYVLATPHHLDRRYQNTGLVVERSVAELQAELKRQQIPLTVFAGQEVHLRDDLATALPHLLGIDVGRRYLLLELPHEQVPNYVAQVIFELLQQGTTPVIAHPERNAQIMAQPERLYDLVQQGCLAQLTAGSLVGQFGRAVKSTALELVECGLVQVIASDAHLMARRGFMMRAGYQALARLDSTNPASFAVNARLLLNGDPVVLGEVLRPNQRRKFWLFEGHHHHHH | not soluble
MGDASTQLSSYVKQVQTGHKPSTKEIVRFSKLFEDQLALEHLDRPQLVALCKLLELQTFGTNNLLRFQLLMKLKSIKADDEIIAKEGVTALSVSELQAACRARGMRSLGLTEEQLRQQLTEWQDLHLKENVPPSLLLLSRTFYLIDVKPKPIEIPLSGEAPKTDILVELPTFTESKENMVDLAPQLKGTKDEDFIQPPPVTSSPITPSTPISLPKGPITSSEEPTLQAKSQMTAQNSKASSKGA | soluble
MSMERSLEAWEEVQRHGQDLADRLAQGFTGLIHINPPSFPWPPNHHHLHKAKLFDLEFPTQHFSVIKDSRFSINQPINGVTAILDIGNKIGQAGVDFGAGLNVMVQQFFRRLPIPFLHEDNNKLVVSVDGDKSTRSHRAYVITKGDLGMATERLRDSGFSKTDDTASVTMSEEEVADSYLRAAGLLGRSKGTIDTSSSYDSRTNGMEHSLAARGDLWRVEASHSSSTASDGNSSLFLLQLGPLLFLRDSTLLLPLHLSKQHLLWYGYDRKSFMDLQFPNGQLTYVSGEGLTTSAFVPFCGGLLQAQGQYPGDMRFSYSCKNKCGTRITPMVHWPDKSFGLDLSQPLAWRRSGLLMKPTIQVSVCPTFGGSNPGIKAEVIHSLSDDLNLICGYALNAHPSAFASVAFGRSKWNGNIGRTGIVVRADTPLASIGQPSFSIQLNNAFEF | soluble
SLRASDDKALQYAIAEITEIATGFGLDFYPMRYEICPAEIIYTFGAYGMPTRFSHWSFGKQFFRMKLQYDLGLSKIYELVINSDPCYAFLLDTNSLIQNKLIVAHVLAHCDFFKNNIRFSNTKRDMVESMSATAERVKAYEHKYGKEEVETFLDAVLAIQEHIDPSLMRPKLAWSIDDLEEEEVEKKKVSQYDDLWNLDNRNKKRERSNVRKKKKIPPQPEKDLLLFIEEYSRELEDWQRDILTMMREEMLYFWPQLETKIMNEGWASYY | soluble
ANFNVPKLGVFPVAAVFDIDNVPEDSSATGSRWLPSIYQGGNYWGGGPQALHAQVSNFDSSNRLPYNPRTENNPAGNCAFAFNPFGQYISNISSAQSVHRRIYGIDLNDEPLFSPNAASITNGGNPTMSQDTGYHNIGPINTAYKAEIFRPVNPLPMSDTAPDPETLEPGQTEPLIKSDGVYSNSGIASFIFDRPVTEPNPNWPPLPPPVIPIIYPTPALGIGAAAAYGFGYQVTVYRWEEIPVEFIADPETCPAQPTTDKVIIRTTDLNPEGSPCAYEAGIILVRQTSNPMNAVAGRLVPYVEDIAVDIFLTGKFFTLNPPLRITNNYFADDEVKENTVTIGNYTTTLSSAYYAVYKTDGYGGATCFIASGGAGISALVQLQDNSVLDVLYYSLPLSLGGSKAAIDEWVANNCGLFPMSGGLDKTTLLEIPRRQLEAINPQDGPGQYDLFILDDSGAYASFSSFIGYPEAAYYVAGAATFMDVENPDEIIFILRNGAGWYACEIGDALKIADDEFDSVDYFAYRGGVMFIGSARYTEGGDPLPIKYRAIIPGLP | soluble
MGSDKIHHHHHHMNLRHLVFFKELARTQHMAKAAENLGISQPSLSYAIKKLEHELGVPLFEADGRNIKLTSIGGVYLKYVTATLNDLSQGNELVKQLMDPDTGHVKLGFTYTLGQQLVPELLSHFKNQSENQAITFELGQGNSGVLLQALADEKYDIVLASNVDRLGEQLTAHLFDFIPLVQQEIVAVVPNDHPAVQKNPLHVEDLAPYPMILFSQNSGLRPLIDQILSAAHVQPKVAYEVEEDYTMAGFVRYNMGVALMPYLPLLNPERVQIKHLADQPLQHQIYLVVRRSGFITPAVHRFQEFIRSYCWQHYTNQERSI | not soluble
MGSDKIHHHHHHMALSADSRLQFTSDLNICRILNGMWQVSGGHGKINAPAAIKTMFQYVDAGFTTWDLADHYGPAEDFIGEFRRQLVANRGKEALANIQAFTKWVPRPGRMTKKLVEENIDISRRRMDVESLDLMQFHWWDYQDKNYLDALKYMAELQTEGKIKHLALTNFDTEHLQIITEAGIKIVSNQVQFSLVDRRPEVNMVKFCQQHDIKLFTYGTLCGGLLSEKYIGKPEPRGFDLGTTSLRKYKNMVDAWGGWHLFQELLSTLKQIADKHGVSIANVATRYILDKPAVGGVIVGARLGISEHIADNAKVFSFTLDAEDSNVINTISSQSRDLYQLIGDCGDEYRR | not soluble
MRIGVIMGGVSSEKQVSIMTGNEMIANLDKNKYEIVPITLNEKMDLIEKAKDIDFALLALHGKYGEDGTVQGTLESLGIPYSGSNMLSSGICMDKNISKKILRYEGIETPDWIELTKMEDLNFDELDKLGFPLVVKPNSGGSSVGVKIVYDKDELISMLETVFEWDSEVVIEKYIKGEEITCSIFDGKQLPIISIRHAAEFFDYNAKYDDASTIEEVIELPAELKERVNKASLACYKALKCSVYARVDMMVKDGIPYVMEVNTLPGMTQASLLPKSADAAGIHYSKLLDMIIETSLRVRKEEGF | not soluble
MVDGNYSVASNVMVPMRDGVRLAVDLYRPDADGPVPVLLVRNPYDKFDVFAWSTQSTNWLEFVRDGYAVVIQDTRGLFASEGEFVPHVDDEADAEDTLSWILEQAWCDGNVGMFGVSYLGVTQWQAAVSGVGGLKAIAPSMASADLYRAPWYGPGGALSVEALLGWSAKIGTGLITSRSDARPEDAADFVQLAAILNDVAGAASVTPLAEQPLLGRLIPWVIDQVVDHPDNDESWQSISLFERLGGLATPALITAGWYDGFVGESLRTFVAVKDNADARLVVGPWSHSNLTGRNADRKFGIAATYPIQEATTMHKAFFDRHLRGETDALAGVPKVRLFVMGIDEWRDETDWPLPDTAYTPFYLGGSGAANTSTGGGTLSTSISGTESADTYLYDPADPVPSLGGTLLFHNGDNGPADQRPIHDRDDVLCYSTEVLTDPVEVTGTVSARLFVSSSAVDTDFTAKLVDVFPDGRAIALCDGIVRMRYRETLVNPTLIEAGEIYEVAIDMLATSNVFLPGHRIMVQVSSSNFPKYDRNSNTGGVIAREQLEEMCTAVNRIHRGPEHPSHIVLPIIKRKLAAALEHHHHHH | soluble
MAACRALKAVLVDLSGTLHIEDAAVPGAQEALKRLRGASVIIRFVTNTTKESKQDLLERLRKLEFDISEDEIFTSLTAARSLLERKQVRPMLLVDDRALPDFKGIQTSDPNAVVMGLAPEHFHYQILNQAFRLLLDGAPLIAIHKARYYKRKDGLALGPGPFVTALEYATDTKATVVGKPEKTFFLEALRGTGCEPEEAVMIGDDCRDDVGGAQDVGMLGILVKTGKYRASDEEKINPPPYLTCESFPHAVDHILQHLLAENLYFQ | soluble

Reference: the DeepSol protein solubility set
